Data: paper PMC6072106

What was measured:
Conditions in all cases: EMSA: 24 mM Tris/HCl pH 7.5, 50 mM KCl, 10 mM MgCl2, 1 mM CaCl2, 0.1 mM EDTA, 5% glycerol, 0.05 ug/ul BSA, 0.05 ug/ul salmon sperm DNA, 20 ul, 20 min room …
Fis [1] = target: T1, Fis (UniProt Q88DK4); assay: DNase I footprinting
T1 sequence: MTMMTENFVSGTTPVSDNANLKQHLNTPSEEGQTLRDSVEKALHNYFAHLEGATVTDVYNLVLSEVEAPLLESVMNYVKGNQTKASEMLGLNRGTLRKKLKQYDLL

Fis [2] = target: T1, Fis; assay: EMSA with LF2 competition
Fis [3] = target: T1, Fis; assay: competition
Fis [4] = target: T1, Fis; assay: EMSA

Sequence | binding (Fis [1]) | binding (Fis [2]) | binding (Fis [3]) | binding (Fis [4])
AGGATCCAATCGCCAGATGAACTTTACAAGGCGCAGAACAGCGAAATTCGAGCGCAGCAGTTCAAATGATATTAATTATCATTACAGGGTTTGCAATTCGTTACCCGCTGCAAGAAACATAAGTCAGCCAACCGCGCGTAATGCCCGAATTTCAAGGCTCTCAGCCAGTTACGAACG (double strand) [Fis-nuo3-mut-Fis-nuo4] | binds more weakly | binds more weakly | – | –
AGGATCCAATCGCCAGATGAACTTTACAAGGCGCAGAACAGCGAAATTCGAGCGCAGCAGTGGCACCGACCTTAATTATCATTACAGGGTTTGCAATTCGTTACCCGCTGCAAGAAACATAATTAACAAAACCGCGCGTAATGCCCGAATTTCAAGGCTCTCAGCCAGTTACGAACG (double strand) [Fis-nuo3-Fis-nuo4-mut] | binds more weakly | binds more weakly | – | –
GCGCGTAATGCCCGAATTTCAAGGCTCTCAGCCAGTTACGAACGTTTGTCCTACCTAATCCTACGAATAAATTTGCGACAGAAATTTTACTTGCACCAGGTTTACCCATAAAATCAGCGCGATTGATCCGGCTGCGACATTTGGTCACTG (double strand) [Fis-nuo1-Fis-nuo2-mut] | binds more weakly | binds more weakly | – | –
CGTGGGGTTATGCCGAGATAAGGCAAAAATTAGGACATTCGTTCTGTAAATATATGATTTAAAAGGTTATTCGAGAGGCCGTGGCTTGCTGGTCATCCACCGTCTGAGCTCAGC (double strand) [RF1] | – | – | no binding | –
AGGATCCAATCGCCAGATGAACTTTACAAGGCGCAGAACAGCGAAATTCGAGCGCAGCAGTTCAAATGATATTAATTATCATTACAGGGTTTGCAATTCGTTACCCGCTGCAAGAAACATAATTAACAAAACCGCGCGTAATGCCCGAATTTCAAGGCTCTCAGCCAGTTACGAACG (double strand) [nuoA promoter Fis-nuo3-Fis-nuo4 (170 bp)] | binds | – | – | binds
GCGCGTAATGCCCGAATTTCAAGGCTCTCAGCCAGTTACGAACGTTTTTTGTACTTAATCCTACGAATAAATTTGCGACAGAAATTTTACTTGCACCAGGTTTACCCATAAAATCAGCGCGATTGATCCGGCTGCGACATTTGGTCACTG (double strand) [nuoA promoter Fis-nuo1-Fis-nuo2 (150 bp)] | binds | – | – | binds
GCGCGTAATGCCCGAATTTCAAGGCTCTCAGCCAGTTACGAACGTTTTTTGTACTTAATCCTACGAATAAGGTTGCGAGTCGAATTTTACTTGCACCAGGTTTACCCATAAAATCAGCGCGATTGATCCGGCTGCGACATTTGGTCACTG (double strand) [Fis-nuo1-mut-Fis-nuo2] | binds more weakly | – | – | –
